Experimental data from publication PMC13282566, “Regulation of Citron kinase by CDK1 and Aurora B regulates midbody formation and stability” (Journal of Cell Science, 2026).

T1: GST::KIF14(901-1648) (UniProt Q15058 901-1648)
T1 construct: Cloned into pDEST15; source: E. coli, purified (glutathione sepharose 4B), kept on beads; not shown: GST, N-terminal, kept
T1 sequence (looked up): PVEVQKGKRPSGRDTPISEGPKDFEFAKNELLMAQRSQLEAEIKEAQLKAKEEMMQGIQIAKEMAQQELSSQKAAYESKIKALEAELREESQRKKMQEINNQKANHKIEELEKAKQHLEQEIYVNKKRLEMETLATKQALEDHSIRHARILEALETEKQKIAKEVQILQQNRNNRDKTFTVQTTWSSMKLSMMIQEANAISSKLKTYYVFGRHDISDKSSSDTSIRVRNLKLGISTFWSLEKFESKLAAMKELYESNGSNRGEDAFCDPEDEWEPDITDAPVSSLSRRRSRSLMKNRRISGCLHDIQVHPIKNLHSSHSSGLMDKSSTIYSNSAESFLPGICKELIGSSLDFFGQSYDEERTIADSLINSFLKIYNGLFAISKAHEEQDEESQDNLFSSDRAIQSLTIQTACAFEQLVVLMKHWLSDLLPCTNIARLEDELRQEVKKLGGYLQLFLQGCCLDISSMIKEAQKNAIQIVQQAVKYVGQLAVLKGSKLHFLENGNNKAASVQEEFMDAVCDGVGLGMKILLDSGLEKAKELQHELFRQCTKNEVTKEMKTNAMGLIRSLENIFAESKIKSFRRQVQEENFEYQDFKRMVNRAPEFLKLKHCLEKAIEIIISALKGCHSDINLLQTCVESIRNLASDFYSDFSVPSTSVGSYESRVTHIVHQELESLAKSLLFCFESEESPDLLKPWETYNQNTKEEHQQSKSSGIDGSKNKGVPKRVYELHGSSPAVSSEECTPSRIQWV

B1: MBP::CIT-K(420-585) (domain or fragment, human, UniProt O14578-4 420-585, looked up)
chain: SYSKALGILGRSESVVSGLDSPAKTSSMEKKLLIKSKELQDSQDKCHKMEQEMTRLHRRVSEVEAVLSQKEVELKASETQRSLLEQDLATYITECSSLKRSLEQARMEVSQEDDKALQLLHDIREQSRKLQEIKEQEYQAQVEEMRLMMNQLEEDLVSARRRSDLY
notes: contains S440; numbering of UniProt O14578-4; Cloned into pKM596; also called MBP::CC1 fragment containing S440; source: E. coli, purified (amylose resin, eluted with maltose)
B2: MBP::CIT-K(420-585) phosphorylated by CDK1/cyclin B (pS440) (domain or fragment, human, UniProt O14578-4 420-585, looked up)
chain: B1 chain
modifications: phosphoserine at 440 (in vitro by CDK1/cyclin B, detected with the CIT-K pS440 antibody)
notes: numbering of UniProt O14578-4; source: E. coli, purified (amylose resin), then incubated with recombinant CDK1/cyclin B

Tests used:
KIF14 901-1648 = KIF14 901-1648 (UniProt Q15058); experiment: GST pull-down of MBP-tagged fragment, western blot; conditions: reference: fragment incubated without CDK1/cyclin B; sites S440
GST::KIF14(901-1648) = biological target: T1, GST::KIF14(901-1648); experiment: pull-down; GST-tagged KIF14 or MKLP1 fragment on glutathione sepharose beads, purified MBP::CIT-K fragment in solution (with or without prior incubation with CDK1/cyclin B or AURKB); NET-N+ buffer (50 mM Tris-HCl pH 7.4, 150 mM NaCl, 5 mM EDTA, 0.2% NP-40), 60 min at 4°C; washes with 250 mM NaCl; western blot; conditions: both partners purified

Molecule	binding against the reference (KIF14 901-1648)	binding result (GST::KIF14(901-1648))
Citron kinase (CIT-K) 420-585 (from UniProt O14578-4) fragment incubated with CDK1/cyclin B	same	
B1		binds
B2		binds
